Reference: patent publication US10941182 (Amgen, dated 2021)
Non-standard residues stand in square brackets, D forms with d. No end group written: not given here. Oic = O=C(O)[C@@H]1C[C@@H]2CCCC[C@@H]2N1; Phe(4-Cl) = N[C@@H](Cc1ccc(Cl)cc1)C(=O)O; dPhe(4-Cl) = N[C@H](Cc1ccc(Cl)cc1)C(=O)O; d1Nal = N[C@H](Cc1cccc2ccccc12)C(=O)O; NMeR = CN[C@@H](CCCNC(=N)N)C(=O)O; hArg = N=C(N)NCCCC[C@H](N)C(=O)O; β3hR = N=C(N)NCCC[C@H](N)CC(=O)O; Cha = N[C@@H](CC1CCCCC1)C(=O)O; β3hQ = NC(=O)CC[C@H](N)CC(=O)O; β3hP = O=C(O)C[C@@H]1CCCN1; Nle = CCCC[C@H](N)C(=O)O; Orn = NCCC[C@H](N)C(=O)O; BPhe = β-phenylalanine; Aib = CC(C)(N)C(=O)O; βAla = NCCC(=O)O; BLys = β-lysine; Sar = CNCC(=O)O

T1: rat APJ receptor (rat, UniProt Q9JHG3 1-377)
T1 sequence (looked up): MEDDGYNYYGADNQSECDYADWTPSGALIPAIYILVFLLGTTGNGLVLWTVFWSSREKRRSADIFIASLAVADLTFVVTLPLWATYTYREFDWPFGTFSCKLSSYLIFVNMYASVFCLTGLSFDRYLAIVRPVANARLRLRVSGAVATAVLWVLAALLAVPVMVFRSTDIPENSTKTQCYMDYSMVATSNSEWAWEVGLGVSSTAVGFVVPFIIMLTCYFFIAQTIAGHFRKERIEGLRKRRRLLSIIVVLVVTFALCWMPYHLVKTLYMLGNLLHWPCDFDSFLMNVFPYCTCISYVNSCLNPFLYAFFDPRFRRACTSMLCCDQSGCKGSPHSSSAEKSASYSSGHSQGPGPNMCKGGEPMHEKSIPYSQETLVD

T2: human APJ receptor (human, UniProt P35414 1-380)
T2 sequence (looked up): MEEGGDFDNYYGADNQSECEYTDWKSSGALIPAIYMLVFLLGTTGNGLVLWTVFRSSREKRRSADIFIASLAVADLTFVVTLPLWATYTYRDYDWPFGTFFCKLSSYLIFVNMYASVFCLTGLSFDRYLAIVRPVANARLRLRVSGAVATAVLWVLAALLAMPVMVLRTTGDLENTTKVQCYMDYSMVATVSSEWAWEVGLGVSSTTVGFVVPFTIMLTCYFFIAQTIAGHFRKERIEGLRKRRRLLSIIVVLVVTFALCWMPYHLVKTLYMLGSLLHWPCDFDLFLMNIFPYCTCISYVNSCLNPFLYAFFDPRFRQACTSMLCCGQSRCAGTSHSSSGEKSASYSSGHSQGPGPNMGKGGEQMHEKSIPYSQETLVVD

B1: apelin polypeptide SEQ ID NO: 25 (peptide)
peptide: Ac-[hArg]Q[dR]P[NMeR][Cha]SHKG[Oic][Nle][d1Nal]-OH
SMILES: CCCC[C@H](NC(=O)[C@@H]1C[C@@H]2CCCC[C@@H]2N1C(=O)CNC(=O)[C@H](CCCCN)NC(=O)[C@H](Cc1c[nH]cn1)NC(=O)[C@H](CO)NC(=O)[C@H](CC1CCCCC1)NC(=O)[C@H](CCCNC(=N)N)N(C)C(=O)[C@@H]1CCCN1C(=O)[C@@H](CCCNC(=N)N)NC(=O)[C@H](CCC(N)=O)NC(=O)[C@H](CCCCNC(=N)N)NC(C)=O)C(=O)N[C@H](Cc1cccc2ccccc12)C(=O)O

target: T1, rat APJ receptor; assay: cell-based or functional assay

Compared with Ac-[hArg]Q[dR]P[NMeR][Cha]SHKG[Oic][Nle]P[dPhe(4-Cl)]-OH [apelin polypeptide SEQ ID NO: 24], [Orn]F[hArg][hArg]Q[hArg]P[hArg][Cha]SH[BLys]G[Oic][Nle]P[Phe(4-Cl)] [apelin polypeptide SEQ ID NO: 702] is 90-fold lower in “EC50 Rat APJ Receptor” value: 134 nM for the first, 1.49 nM for the second.

Compared with [Orn]F[hArg][hArg]Q[hArg]P[hArg][Cha]SHKG[Oic][Nle][Aib][Phe(4-Cl)] [apelin polypeptide SEQ ID NO: 685], B1 is 320-fold higher in “EC50 Rat APJ Receptor” value: 0.168 nM for the first, 53.7 nM for the second.

First: [Orn]F[hArg][hArg]Q[hArg]P[hArg][Cha]S[βAla]KG[Oic][Nle]P[Phe(4-Cl)] [apelin polypeptide SEQ ID NO: 700]
Second: Q[hArg]P[NMeR][Cha]SHKG[Oic][Nle]P[Phe(4-Cl)] [apelin polypeptide SEQ ID NO: 675]
The “EC50 Rat APJ Receptor” value of the first is 16-fold higher: 3.11 nM for the first, 0.189 nM for the second.

First: [Orn]F[hArg][hArg]Q[hArg]P[hArg][Cha][Sar]HKG[Oic][Nle]P[Phe(4-Cl)] [apelin polypeptide SEQ ID NO: 678]
Second: [Orn]F[hArg][hArg]Q[hArg]P[hArg][Cha]SHKG[βAla][Nle]P[Phe(4-Cl)] [apelin polypeptide SEQ ID NO: 705]
The “EC50 Rat APJ Receptor” value of the first is 5.3-fold lower: 2.11 nM for the first, 11.1 nM for the second.

First: [Orn]F[hArg][hArg]Q[hArg]P[hArg][Cha]SHK[Aib][Oic][Nle]P[Phe(4-Cl)] [apelin polypeptide SEQ ID NO: 681]
Second: [Orn][BPhe][hArg][hArg]Q[hArg]P[hArg][Cha]SHKG[Oic][Nle]P[Phe(4-Cl)] [apelin polypeptide SEQ ID NO: 687]
The “EC50 Rat APJ Receptor” value of the first is 7.4-fold higher: 1.3 nM for the first, 0.175 nM for the second.

Going from [Orn]F[hArg][hArg]Q[hArg]P[hArg][Cha]SHKG[Aib][Nle]P[Phe(4-Cl)] [apelin polypeptide SEQ ID NO: 682] to [Orn]F[hArg][β3hR]Q[hArg]P[hArg][Cha]SHKG[Oic][Nle]P[Phe(4-Cl)] [apelin polypeptide SEQ ID NO: 689], the “EC50 Rat APJ Receptor” value falls from 7.98 nM to 0.349 nM (23-fold).

Going from [Orn]F[hArg][hArg]Q[hArg][β3hP][hArg][Cha]SHKG[Oic][Nle]P[Phe(4-Cl)] [apelin polypeptide SEQ ID NO: 694] to [Orn]F[hArg][hArg][β3hQ][hArg]P[hArg][Cha]SHKG[Oic][Nle]P[Phe(4-Cl)] [apelin polypeptide SEQ ID NO: 690], the “EC50 Rat APJ Receptor” value falls from 0.602 nM to 0.183 nM (3.3-fold).

First: [Orn]F[hArg][hArg]Q[hArg]P[hArg][Cha]SHK[βAla][Oic][Nle]P[Phe(4-Cl)] [apelin polypeptide SEQ ID NO: 704]
Second: [Orn]F[hArg][hArg]Q[hArg]P[hArg][Cha][βAla]HKG[Oic][Nle]P[Phe(4-Cl)] [apelin polypeptide SEQ ID NO: 699]
The “EC50 Rat APJ Receptor” value of the first is 4.7-fold higher: 2.86 nM for the first, 0.603 nM for the second.

target: T2, human APJ receptor; assay: cell-based or functional assay

First: Ac-[hArg]Q[dR]P[NMeR][Cha]SHKG[Oic][Nle]P[dPhe(4-Cl)]-OH [apelin polypeptide SEQ ID NO: 24]
Second: [Orn]F[hArg][hArg]Q[hArg]P[hArg][Cha]SH[BLys]G[Oic][Nle]P[Phe(4-Cl)] [apelin polypeptide SEQ ID NO: 702]
The “EC50 Human APJ Receptor” value of the first is 24-fold higher: 7.87 nM for the first, 0.33 nM for the second.

Compared with [Orn]F[hArg][hArg]Q[hArg]P[hArg][Cha]SHKG[Oic][Nle][Aib][Phe(4-Cl)] [apelin polypeptide SEQ ID NO: 685], B1 is 18-fold higher in “EC50 Human APJ Receptor” value: 0.0946 nM for the first, 1.74 nM for the second.

Going from [Orn]F[hArg][hArg]Q[hArg]P[hArg][Cha]S[βAla]KG[Oic][Nle]P[Phe(4-Cl)] [apelin polypeptide SEQ ID NO: 700] to Q[hArg]P[NMeR][Cha]SHKG[Oic][Nle]P[Phe(4-Cl)] [apelin polypeptide SEQ ID NO: 675], the “EC50 Human APJ Receptor” value falls from 0.949 nM to 0.159 nM (6-fold).

Going from [Orn]F[hArg][hArg]Q[hArg]P[hArg][Cha][Sar]HKG[Oic][Nle]P[Phe(4-Cl)] [apelin polypeptide SEQ ID NO: 678] to [Orn]F[hArg][hArg]Q[hArg]P[hArg][Cha]SHKG[βAla][Nle]P[Phe(4-Cl)] [apelin polypeptide SEQ ID NO: 705], the “EC50 Human APJ Receptor” value rises from 0.664 nM to 3.48 nM (5.2-fold).

Compared with [Orn]F[hArg][hArg]Q[hArg]P[hArg][Cha]SHK[Aib][Oic][Nle]P[Phe(4-Cl)] [apelin polypeptide SEQ ID NO: 681], [Orn][BPhe][hArg][hArg]Q[hArg]P[hArg][Cha]SHKG[Oic][Nle]P[Phe(4-Cl)] [apelin polypeptide SEQ ID NO: 687] is 7.9-fold lower in “EC50 Human APJ Receptor” value: 0.723 nM for the first, 0.0918 nM for the second.

First: [Orn]F[hArg][hArg]Q[hArg]P[hArg][Cha]SHKG[Aib][Nle]P[Phe(4-Cl)] [apelin polypeptide SEQ ID NO: 682]
Second: [Orn]F[hArg][β3hR]Q[hArg]P[hArg][Cha]SHKG[Oic][Nle]P[Phe(4-Cl)] [apelin polypeptide SEQ ID NO: 689]
The “EC50 Human APJ Receptor” value of the first is 13-fold higher: 1.53 nM for the first, 0.114 nM for the second.

Going from [Orn]F[hArg][hArg]Q[hArg][β3hP][hArg][Cha]SHKG[Oic][Nle]P[Phe(4-Cl)] [apelin polypeptide SEQ ID NO: 694] to [Orn]F[hArg][hArg][β3hQ][hArg]P[hArg][Cha]SHKG[Oic][Nle]P[Phe(4-Cl)] [apelin polypeptide SEQ ID NO: 690], the “EC50 Human APJ Receptor” value falls from 0.458 nM to 0.111 nM (4.1-fold).

Compared with [Orn]F[hArg][hArg]Q[hArg]P[hArg][Cha]SHK[βAla][Oic][Nle]P[Phe(4-Cl)] [apelin polypeptide SEQ ID NO: 704], [Orn]F[hArg][hArg]Q[hArg]P[hArg][Cha][βAla]HKG[Oic][Nle]P[Phe(4-Cl)] [apelin polypeptide SEQ ID NO: 699] is 2.2-fold lower in “EC50 Human APJ Receptor” value: 0.963 nM for the first, 0.44 nM for the second.
